Legend:
[1] = target: T1, human HER2-Fc (human, UniProt P04626 23-652); experiment: Octet biolayer interferometry, receptor-Fc on anti-human Fc biosensor, culture supernatant
T1 construct: Bought from R&D Systems: homodimeric fusion of the HER2 extracellular domain and human IgG1 Fc; also called human ErbB2-Fc; rhErbB2-Fc; not shown: Fc fragment of human IgG1
Description: (§1) Anti-human Fc-specific biosensors (Fortebio SKU 18-0001) were hydrated in OB (1×PBS supplemented with 1 mg/ml BSA, 0.05% NaN₃, and 0.02% TWEEN 20) for at least five minutes prior to assays. For each assay, the respective receptor—Fc fusion was diluted to 10 μg/ml in OB and allowed to bind to the biosensors for five minutes. The sensors were then incubated in the indicated culture supernatant for an additional five minutes, and subsequently transferred to fresh wells […].

[2] = target: T2, human LTβR-Ig (human, UniProt P36941 31-227); experiment: as above
T2 construct: Expressed and purified in house; also called hLTbR-Ig; human LTBR-Ig
Description: as §1

[3] = target: T3, human HVEM-Ig (human, UniProt Q92956 39-202); experiment: as above
T3 construct: Expressed and purified in house; also called HVEM-Fc; Herpes virus entry mediator-Ig
T3 sequence (looked up): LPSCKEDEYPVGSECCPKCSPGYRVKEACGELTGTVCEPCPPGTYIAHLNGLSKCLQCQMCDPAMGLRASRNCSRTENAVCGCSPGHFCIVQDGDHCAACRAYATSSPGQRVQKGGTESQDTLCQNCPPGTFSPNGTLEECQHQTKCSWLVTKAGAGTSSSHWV
Description: as §1

[4] = target: T3, human HVEM-Ig; experiment: ELISA, huHVEM-Ig coated at 0.2 ug/ml, HRP goat anti-human kappa; the number is C of the printed 4-P fit (A 0.08, B 1.089, D 1.303, R^2 0.999); Fab-Light is BIIB71F10-132 by paragraph 503
Description: Human and murine ErbB2-Fc were obtained from R&D Systems. Wells of 96-well plates were coated with 2 ug/ml or 0.2 ug/ml of human or murine HER2-Fc by incubation overnight at 4-8° C. with either of these six proteins (80 ul/well of a 0.2 or 2 ug/ml solution in PBS). Wells were emptied, filled completely with a solution of PBS with 1% BSA (blocking buffer) and incubated at room temperature for 1 hour. Wells were emptied, washed twice PBS containing 0.05% Tween 20 (PBST) and filled with the samples (80 ul/well of 3× dilution series of the standard and supernatants in blocking buffer) prepared in another 96-well plate. After a 2-hour incubation at room temperature, the wells were emptied, washed three times with PBST and filled with a solution of HRP-conjugated goat pAbs anti-human kappa chain (80 ul/well of a 2000-fold dilution in blocking buffer). After 1-hour incubation, the wells were emptied and filled with a solution of HRP substrate prepared freshly. The color was left to develop for 3 minutes and was stopped by addition of an equal volume of 1N H₂SO₄. Absorbance was measured at 450 nm using a Plate Reader (SpectraMax, Molecular Devices). The data was processed and graphs were created using SoftMax Pro software.
Human and murine HVEM-Ig were expressed and purified in house.

[5] = target: T4, human LTBR-mIgG fusion; experiment: sandwich ELISA after incubation at 200 ng/ml in human serum (cold or 37°C overnight): HER2-Fc on the plate, human LTBR-mIgG, HRP anti-mouse IgG; the signal needs both bindings at once
T4 construct: kept apart from m25 (human Fc); not shown: exact end of the LTBR part
Description: An ELISA assay was developed to detect LIGHT-Ab fusions after incubation with human sera. Briefly, 200 ng/mL of LIGHT-Ab fusions were incubated overnight in human serum at 37° C. The serum was assayed in sandwich ELISA as follows. HER2-Fc was immobilized to a solid surface, and was used to capture the LIGHT-Ab fusions. The serum incubated fusion proteins were added to the solid surface. Detection was effected using a human LTBR-mIgG fusion to bind to the LIGHT moiety of the fusion. Horseradish peroxidase (HRP) labeled anti-mouse IgG was used to detect bound LIGHT-Ab fusions.

B1: 71F10 Fab-hLIGHT fusion with the (G4S)4 linker (BIIB71F10-132) (other)
heavy: EVQLLESGGGLVQPGGSLRLSCAASGFTFSSYGMVWVRQAPGKGLEWVSSISSSGGLTWYADSVKGRFTISRDNSKNTLYLQMNSLRAEDTAVYYCASPPGIAVARDYWGQGTLVTVSSASTKGPSVFPLAPSSKSTSGGTAALGCLVKDYFPEPVTVSWNSGALTSGVHTFPAVLQSSGLYSLSSVVTVPSSSLGTQTYICNVNHKPSNTKVDKKVEPKSCDKGGGGSGGGGSGGGGSGGGGSNPAAHLTGANSSLTGSGGPLLWETQLGLAFLRGLSYHDGALVVTKAGYYYIYSKVQLGGVGCPLGLASTITHGLYKRTPRYPEELELLVSQQSPCGRATSSSRVWWDSSFLGGVVHLEAGEEVVVRVLDERLVRLRDGTRSYFGAFMV
light: DIQMTQSPSSLSASVGDRVTITCRASQGISNYLAWYQQKPGKVPKLLIYAASTLQSGVPSRFSGSGSGTDFTLTISSLQPEDVATYYCQKYNSALLTFGGGTKVEIKRTVAAPSVFIFPPSDEQLKSGTASVVCLLNNFYPREAKVQWKVDNALQSGNSQESVTEQDSKDSTYSLSSTLTLSKADYEKHKVYACEVTHQGLSSPVTKSFNRGEC
notes: Trimer of Fab-LIGHT units; also called 71F10 Fab-(G4S)4-LIGHT
koff [1]: 0.000117 s⁻¹
koff [2]: 0.000197 s⁻¹
koff [3]: 0.00016 s⁻¹
EC50 [4]: 3.98 ng/mL
binding result [5]: binds
